In this assay the target is T1, Recombinant human Glypican-3 (human, UniProt P51654 25-559, limits assumed, randomly biotinylated via Lysine residues (EZ-Link Sulfo-NHS-LC-LC-Biotin) where captured on Neutravidin; not biotinylated where used as competitor in solution).
T1 construct: Bought protein; The biotinylated and the non-biotinylated preparation are written as one molecule; also called GPC3; GPC-3
The assay is described as follows: direct ELISA: biotinylated human Glypican-3 captured via Neutravidin, protein titrated, RFU readout. How it is done:
A “direct” ELISA was performed to verify the binding affinity and specificity of the selected Lcn2 muteins. Therefore, a constant concentration of 1 μg/ml biotinylated human Glypican 3 (R&D Systems) was captured on the surface of a polystyrol plate (Greiner, GE) via BSA blocked Neutravidin (Thermo Scientific, 5 μg/ml). Two step dilution series of purified Lcn2 muteins were incubated with the captured GPC-3 for 1 h at room temperature and detected either via the Strep-tag II using a rabbit anti-strep-tag II polyconal antibody (GenScript, USA) or by using a scaffold-specific polyclonal rabbit antibody. In both cases an anti rabbit IgG-HRP conjugate (Abcam, UK) was employed as secondary detection antibody.
The absorption ΔA at […] was measured in an ELISA reader (Tecan, GE) and the data were fitted with Graphpad Prism software (Statcom, USA).
(In general: An ELISA detects its analyte on a solid surface through an enzyme-linked reagent.)

The values that follow come from patent US20130296258A1 (Pieris, published 2013).

T1 sequence (P51654 25-559 limits assumed): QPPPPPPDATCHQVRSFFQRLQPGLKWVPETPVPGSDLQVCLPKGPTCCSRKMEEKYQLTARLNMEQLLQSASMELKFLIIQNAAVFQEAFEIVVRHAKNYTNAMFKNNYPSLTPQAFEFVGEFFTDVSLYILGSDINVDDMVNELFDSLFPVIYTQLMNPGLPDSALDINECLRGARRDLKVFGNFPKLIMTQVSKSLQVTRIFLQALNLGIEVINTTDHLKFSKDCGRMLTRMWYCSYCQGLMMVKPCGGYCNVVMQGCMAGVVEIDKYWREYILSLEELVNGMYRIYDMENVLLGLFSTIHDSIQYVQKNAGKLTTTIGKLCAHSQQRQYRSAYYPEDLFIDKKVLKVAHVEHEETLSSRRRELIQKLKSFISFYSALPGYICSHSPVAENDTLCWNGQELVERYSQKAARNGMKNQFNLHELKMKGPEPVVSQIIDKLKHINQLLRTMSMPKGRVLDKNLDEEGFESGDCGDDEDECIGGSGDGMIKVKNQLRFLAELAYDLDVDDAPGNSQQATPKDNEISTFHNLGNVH

B1: Lcn2 wildtype protein (other)
chain: QDSTSDLIPAPPLSKVPLQQNFQDNQFHGKWYVVGLAGNAILREDKDPQKMYATIYELKEDKSYNVTSVLFRKKKCDYWIRTFVPGSQPGEFTLGNIKSYPGLTSYLVRVVSTNYNQHAMVFFKKVSQNREYFKITLYGRTKELTSELKENFIRFSKSLGLPENHIVFPVPIDQCIDG
notes: also called recombinant Lcn2; negative control; not shown: C-terminal Strep-tag II of the phNGAL98 expression vector
Take B1: the binding result is “no binding”.
